Holding throughout (assay): yeast two-hybrid, quantitative β-galactosidase assay
In assay [1] the target is HK1b receiver domain (HK1b-RD), LexA-based two-hybrid bait. The conditions noted are these: HK1b-RD as bait, HPt as prey, standard error bars, read off a plot.
For assay [2], the target named is HK1b cytoplasmic part (HK1b-CP), LexA-based two-hybrid fusion. The conditions noted are these: HK1b-CP as bait, HPt as prey, standard error bars, read off a plot.
Assay [3] concerns the target HK1a receiver domain (HK1a-RD), LexA-based two-hybrid bait. The conditions noted are these: HK1a-RD as bait, HPt as prey, mean of at least four independent assays in triplicate, standard error bars, read off a plot.
The target in assay [4] is HK1a cytoplasmic part (HK1a-CP), LexA-based two-hybrid bait. The conditions noted are these: HK1a-CP as bait, HPt as prey, mean of at least four independent assays in triplicate, standard error bars, read off a plot.

Turning to “HPt1, histidine-containing phosphotransfer protein 1 (two-hybrid prey) K33L; R74K; S77A”, the response (β-Galactosidase units) was determined as 16 in assay [1] (parent: est. 11), 3.7 in assay [2] (parent: est. 2.3), 33 in assay [3] (parent: est. 19) and 5.5 in assay [4] (parent: est. 4.2).

For the substance “HPt2, histidine-containing phosphotransfer protein 2 (two-hybrid prey) L32K; K73R; A76S”, the response (β-Galactosidase units) turned out to be 210 in assay [1] (parent: est. 240), 7 in assay [2] (parent: est. 11), 95 in assay [3] (parent: est. 120) and 32 in assay [4] (parent: est. 71).

The record behind these values is article PMC5187861.
